From publication PMC12322040 (Nature Communications, 2025)

T1: GST-GCK WT (human, UniProt P35557 1-465)
T1 sequence (looked up): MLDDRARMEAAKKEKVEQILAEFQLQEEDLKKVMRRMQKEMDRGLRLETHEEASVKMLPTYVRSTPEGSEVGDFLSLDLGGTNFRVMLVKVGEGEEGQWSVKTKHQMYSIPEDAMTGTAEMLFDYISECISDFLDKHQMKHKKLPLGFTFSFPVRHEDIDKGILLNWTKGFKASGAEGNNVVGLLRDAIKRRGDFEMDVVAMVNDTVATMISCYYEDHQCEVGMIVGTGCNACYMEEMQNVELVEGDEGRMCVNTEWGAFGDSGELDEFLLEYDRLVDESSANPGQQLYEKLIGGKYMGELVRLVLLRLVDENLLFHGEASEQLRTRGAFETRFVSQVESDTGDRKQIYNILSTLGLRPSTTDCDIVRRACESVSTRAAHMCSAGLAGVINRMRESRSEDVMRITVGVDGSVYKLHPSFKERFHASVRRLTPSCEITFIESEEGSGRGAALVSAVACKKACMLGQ

T2: His-GCK WT (human, UniProt P35557 1-465)
T2 sequence (looked up): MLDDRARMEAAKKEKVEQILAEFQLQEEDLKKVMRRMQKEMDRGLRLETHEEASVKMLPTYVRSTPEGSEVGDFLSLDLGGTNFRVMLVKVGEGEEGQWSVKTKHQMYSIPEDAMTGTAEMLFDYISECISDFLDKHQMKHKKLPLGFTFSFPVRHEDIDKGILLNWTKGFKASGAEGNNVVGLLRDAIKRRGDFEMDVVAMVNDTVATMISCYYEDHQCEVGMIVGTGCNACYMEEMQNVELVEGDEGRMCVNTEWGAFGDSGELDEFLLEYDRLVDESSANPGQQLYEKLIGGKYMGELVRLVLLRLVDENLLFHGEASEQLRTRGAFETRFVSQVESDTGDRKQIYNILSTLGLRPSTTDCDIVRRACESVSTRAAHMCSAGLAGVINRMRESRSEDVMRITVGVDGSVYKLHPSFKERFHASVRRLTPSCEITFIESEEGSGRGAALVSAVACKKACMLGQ


Experiments:
GST-GCK WT = target: T1, GST-GCK WT; assay: pull-down
His-GCK WT = target: T2, His-GCK WT; assay: pull-down

binding result (GST-GCK WT)	binding result (His-GCK WT)	Binder
binds		His-CK2α (enzyme, human, UniProt P68400 1-391, looked up) MSGPVPSRARVYTDVNTHRPREYWDYESHVVEWGNQDDYQLVRKLGRGKYSEVFEAINITNNEKVVVKILKPVKKKKIKREIKILENLRGGPNIITLADIVKDPVSRTPALVFEHVNNTDFKQLYQTLTDYDIRFYMYEILKALDYCHSMGIMHRDVKPHNVMIDHEHRKLRLIDWGLAEFYHPGQEYNVRVASRYFKGPELLVDYQMYDYSLDMWSLGCMLASMIFRKEPFFHGHDNYDQLVRIAKVLGTEDLYDYIDKYNIELDPRFNDILGRHSRKRWERFVHSENQHLVSPEALDFLDKLLRYDHQSRLTAREAMEHPYFYTVVKDQARMGSSSMPGGSTPVSSANMMSGISSVPTPSPLGPLAGSPVIAAANPLGMPVPAAAGAQQ
	binds	GST-CK2α WT phosphorylated by active His-ERK2 (enzyme, human, UniProt P68400 1-391, looked up, phosphothreonine at 360, phosphoserine at 362 (ERK-mediated)) MSGPVPSRARVYTDVNTHRPREYWDYESHVVEWGNQDDYQLVRKLGRGKYSEVFEAINITNNEKVVVKILKPVKKKKIKREIKILENLRGGPNIITLADIVKDPVSRTPALVFEHVNNTDFKQLYQTLTDYDIRFYMYEILKALDYCHSMGIMHRDVKPHNVMIDHEHRKLRLIDWGLAEFYHPGQEYNVRVASRYFKGPELLVDYQMYDYSLDMWSLGCMLASMIFRKEPFFHGHDNYDQLVRIAKVLGTEDLYDYIDKYNIELDPRFNDILGRHSRKRWERFVHSENQHLVSPEALDFLDKLLRYDHQSRLTAREAMEHPYFYTVVKDQARMGSSSMPGGSTPVSSANMMSGISSVPTPSPLGPLAGSPVIAAANPLGMPVPAAAGAQQ
